According to doi:10.1101/2023.03.13.532385:

Columns and labels:
[1] = biological target: composite αS/N-protein fibrils (fibril strain s1, from plateau p1) (human | SARS-CoV-2) (UniProt P37840); test: co-sedimentation
[2] = biological target: human alpha-synuclein wild-type (human) (UniProt P37840); test: co-sedimentation

human alpha-synuclein wild-type (from UniProt P37840 1-140) (natural protein)
αS aggregated into fibrils at p1 [1]: 8 µM | αS aggregated into fibrils at p2 [2]: 24 µM
